B1: Ms-CR10-12(PS) (receptor)
chain: MHLECISATDPDGLHAGVVTFQVVGDEESQAYFQVVNDGANLGSLSLLQAVPEEIAEFSITICATDQGTDPGPLSTDMTFAVVFVPTQGEPAFASSEHAVAFIEASAGMEESHQLPLAQDIANHLCEDDCHSIYYAIIDGNSEGHFGLDPVANALFLSAELIAEQSASHTLQVAASNSPDGGIPLPASILTVTVTVAEADPAPVFMAELYTAGISTADSIGCELLALHATQSEGAAITYAIDYDTMVVDPSLEAVCQSAFVLNAQTGVLTLNIQPTATMHGLFNFEVTATDTAGAQDRTDVTVYVVSSQNRLEHHHHHH
B2: Sf-CR10-12(PS) (receptor)
chain: MAFLDCLSATDEDGLHAGCVTFSIAGNDEAAEYFNVLNDGDNSAMLTLSQALPAGVQQFELVISATDGGTEPGPSSTDCSVTVVFVMTQGDPVFDDNAASVSFVEHEAGMSESFQLPQADDPSNYACMDDCHTIYYSIVDGNDGDHFAVEPETNVIYLLSPLDSSQQEQYSVVVAASNTPGGTSTLSSSLLTVTIGVSEANPSPIFESEFYTAGVLHTDSIHSELVYLAASHSEGLPIVYSIDQETMSIDESLQTVVEDAFDINSATGVISLNFQPTSVMHGSFDFEVVASDTCGASDCASVSIYMISTRVRVHHHHHH
B3: Sf-CR10-12 (receptor)
chain: MKFLDRLSATDEDGLHAGRVTFSIAGNDEAAEYFNVLNDGDNSAMLTLKQALPAGVQQFELVIRATDGGTEPGPRSTDCSVTVVFVMTQGDPVFDDNAASVRFVEKEAGMSEKFQLPQADDPKNYRCMDDCHTIYYSIVDGNDGDHFAVEPETNVIYLLKPLDRSQQEQYRVVVAASNTPGGTSTLSSSLLTVTIGVREANPRPIFESEFYTAGVLHTDSIHKELVYLAAKHSEGLPIVYSIDQETMKIDESLQTVVEDAFDINSATGVISLNFQPTSVMHGSFDFEVVASDTRGASDRAKVSIYMISTRVRVHHHHHH

biological target: Cry1Fa toxin (Bacillus thuringiensis, UniProt Q03746); assay: cell-based or functional assay

Binder | larval mortality and larval weight, diet surface bioassay, neonate S. frugiperda, 0.1 µg/cm^2 Cry1Fa [fold]
B1 | < 2
B2 | ~4
B3 | ~2

Source: patent US9127076B2, “Modified peptides having toxin-enhancing effects” (The University of Georgia Research Foundation, dated 2015)
